According to the DeepSol protein solubility set:

Experiment: soluble on expression in E. coli; label from the status in PepcDB or PDB records

| Sequence | soluble on expression in E. coli |
| --- | --- |
| MNGNIIGEDEKGVALFVEDNSGNEHEIGVNSEGDIFHHADNVIPDNPSERSDKEDETFSQVRRFARYHVYREKGYDTIPTDENPDRIAAVLLAIIDLDDEEFENRFKPLYKQVMSHERPDVEPSLDLPDSVYHGGEPCYKQNIYLEESLEEMKSTVSEQLVESIGQEQITEVLQADSGDFFSRAASLFGGPNGNYGGLTIDGISGIDTVHLVDGKEQTIKSDDPFERGPDARLELYPSNFDFEAFRFYIGYNLICQIRDCFIGMGVEPPAQYRVLGPGKDKYTGKYHAFDFYPEYHNPGATIPGYIRPAPI | not soluble |
| MNGNSTNNEQLQQELATTQDQVASIIESFVELGVSIYDFPGTPEATKGMITNLQRNVDRLYKLNVRSNDPQSSLSKVDIPLEVVQYIEDGRNPDIYTREFVEAIRRSNQYQRGKMHGLKQLRDSLADKIVDEFPELKEPVEDIIKRTSPIDNVSNTH | not soluble |
| MNGYIINIRYQQMGRVIYMFFFAIFGIQDKNKHIGNCNNIVCPSCGRLSMYEVYKYYKYFHIFFLPIFKWDVRYIVKTSCCGCLYELDPLVGKEFEKNPSTEIREENLQRIDRYSPFKYCSNCRTEVPVEYSYCPYCGERLLEHHHHHH | not soluble |
| MNHKAFAKFPSSASISPNPFTVSIPDEQLDDLKTLVRLSKIAPPTYESLQADGRFGITSEWLTTMREKWLSEFDWRPFEARLNSFPQFTTEIEGLTIHFAALFSEREDAVPIALLHGWPGSFVEFYPILQLFREEYTPETLPFHLVVPSLPGYTFSSGPPLDKDFGLMDNARVVDQLMKDLGFGSGYIIQGGDIGSFVGRLLGVGFDACKAVHLNFCNMSAPPEGPSIESLSAAEKEGIARMEKFMTDGYAYAMEHSTRPSTIGHVLSSSPIALLAWIGEKYLQWVDKPLPSETILEMVSLYWLTESFPRAIHTYREWVPTASAPNGATPYQKELYIHKPFGFSFFPKDLVPVPRSWIATTGNLVFFRDHAEGGHFAALERPRELKTDLTAFVEQVWQKGRSHHHHHH | soluble |
| MNIQAIDTRHGTANQHSFSNGNCLPYTGVPFGMNFYAPQTTDQKGSWWFHPEDRTFQGYRVTHQPSPWMGDFSHLLMTPVSGSLSELSLFHAQSSYRPEESLFSPVEINLTQLRYQITSQLIPSMYGGILTIDYQQKDNHLLLTLPGRYQVKQLDDHQVAVKVINYSGCEDPDFSFYFVLHFEQPLTKWFAPSSGLEHHHHHH | not soluble |
| MNITVPKKLLSDQLSLLERIVPSRSANPLYTYLGLYAEEGALILFGTNGEVDLEVRLPAEAQSLPRVLVPAQPFFQLVRSLPGDLVALGLASEPGQGGQLELSSGRFRTRLSLAPAEGYPELLVPEGEDKGAFPLRTRMPSGELVKALTHVRYAASNEEYRAIFRGVQLEFSPQGFRAVASDGYRLALYDLPLPQGFQAKAVVPARSVDEMVRVLKGADGAEADLALGEGVLALALEGGSGVRMALRLMEGEFPDYQRVIPQEFALKVQVEGEALREAVRRVSVLSDRQNHRVDLLLEEGRILLSAEGDYGKGQEEVPAQVEGPGMAVAYNARYLLEALAPVGDRAHLGISGPTSPSLIWGDGEGYRAVVVPLRV | soluble |
| MNIVLMGLPGAGKGTQAERIVEKYGIPHISTGDMFRAAMKEETPLGLEAKSYIDKGELVPDEVTIGIVRERLSKSDCERGFLLDGFPRTVAQAEALEEILEEMGRPIDYVINIQVDKEELMERLTGRRICSVCGTTYHLVFNPPKTPGICDKDGGELYQRADDNEETVTKRLEVNMKQTAPLLAFYDSKEVLVNVNGQQDIQDVFADVKVILGGLKQ | soluble |
| MNKANPKNIPPLAPKKVFIKTYGCQMNVYDSQRMTDSLSSKGYVATQTPNDADLILVNTCHIREKAAEKLYSDLGRLRVMRQERTPDKPLMVGVTGCVAQAEGSEILRRAPIVDLVIGPQMYHRLPDLLEQTKQGKKIVATEYAVEDKFAHLPPHNKRAVRKRGVSAFLTVQEGCDKFCTFCVVPYTRGAEISRSVEQITEEARQLIEAGVKEITLLGQNVNGWHGQNVNGKTWRLGDLLYHLAKLDGLKRLRYTTSHPRDMDDSLIAAHRDLDILMPYLHLPVQSGSDRILKAMNRQHKSIHYLQLIEKIRNARPDIAFSGDFIVGFPGETDEDFEETIKLIKQVEYSSAYSFKYSPRPGTVGATMKNHVEEAVKDARLQHLQVLLLEQQNAFLRSKIGQTTDVLIEKAGRHSGQMVGRSPWLLPVVVDTQASTGTVIPIHIKNTSSNSFVGEMTNM | not soluble |
| MNKDTVLNVTVMGREFRIHCPGEEREELLLAVSCLNRKMQEIKSAGKIAGTEQIAIAAAISMTHELLSIRSQRGFDMNEFKRRIELLECRVSDALTDQGIYKNS | not soluble |
| MNKIFLTAAALVLGACGFHLKGADGISPPLTYRSWHIEGGQALQFPLETALYQASGRVDDAAGAQMTLRIDSVSQNKETYTVTRAAVINEYLLILTVEAQVLKRGEPVGKPMTVSVRRILDYADNEILGKQEEEETLWAEMRQDVAEQIVRRLTFLKAELEHHHHHH | soluble |
| MNKIHLCTLAVLTSLSFSSLAKDCDANLLPSWKDSDSKTAIVNFVEQSTDSSKATFIPVSDRIAVFDNDGTLWSEKPIYFQIAFALDQIKALAKTHPEWKTQEPFKSVIENDLEKVFAGGKESLLQIMKVTHSGMTVEEYQQSVEQWLAAAKDKRFGKAYNDLTFKPMREMLTYLQENNFKTYIVSGGGVDFMRVWAPEAYNIPEEQIIGSALKYEYSFNDGQPKVMKLGELLTLDDKEVKVENIQYIIGKKPVLAVGNSDGDQAMMQWATSQPNSMAMIVHHTDEAREWKYDRQSDVGRLDKALDEANERDNWQLIDMKNDWCAVY | not soluble |
| MNKLHKGWFTEFSPDDLEKMNGASDEEPTKVLKSDGQEMGGAWPGQAFSLQVKKVLFHEKSKYQDVLVFESTTYGNVLVLDGIVQATERDEFSYQEMLAHLPMFAHPDPKRVLIIGGGDGGILREVLKHESVEKVTMCEIDEMVIDVAKKFLPGMSCGFSHPKLDLFCGDGFEFLKNHKNEFDVIITDSSDPVGPAESLFGQSYYELLRDALKEDGILSSQGESVWLHLPLIAHLVAFNRKIFPAVTYAQSIVSTYPSGSMGYLICAKNANRDVTTPARTLTAEQIKALNLRFYNSEVHKAAFVLPQFVKNALE | soluble |
| MNKQIDLPIADVQGSLDTRHIAIDRVGIKAIRHPVVVADKGGGSQHTVAQFNMYVNLPHNFKGTHMSRFVEILNSHEREISVESFEEILRSMVSRLESDSGHIEMAFPYFINKSAPVSGVKSLLDYEVTFIGEIKHGNQYSFTMKVIVPVTSLCPCSKKISDYGAHNQRSHVTISVRTNSFIWIEDIIRIAEEQASCELYGLLKRPDEKYVTERAYNNPKFVEDIVRDVAEVLNHDDRIDAYIVESENFESIHNHSAYALIERDKRIR | soluble |
| MNKQPGQQPLRSLSLTSAAKSPEEVEPEQDSKKGEPRAKAAGFGGGGGGGKRLPEARSTPMVIPNQVAAMPVQMTGFVQLVANNILSAIAHTNSVMVVQCIKPLEIFTGFETPNRYVVHDMYCRPLLYCMERSNIFARQYEGNDRNFGMQIMDTHGAQVMTCFRGRPCCSTDDFLSTQFLDQQIGMMKKECCNPNFELVGSGCNQPLLIQSPGCAGCGGTQKFPVMTFNGVLVGEIVRLYPGFMQEMFTDADTYIVHFPMDMPPILKLLLVTSVFLIDFTYFEDRNQDQHRNGGMHSGMHSSF | not soluble |
| MNKVAIAVAAVVAGSSALLNSAQAEMYIGGKVGMTTLDDACYLNSPCDDEAFGAGLHIGYDFTDFIGLEYGVDFLGDYKANFKSGASTVDTIDGNLTALTLAPKFNWHLNDSWNLFAKIGGAYMMSEDEKDFVATGSLGAEYSIDRNWSVRAEYQRYQDMSDDVWDDMDANFFGIGVNYKFAAAPVVAAVVTEEVVEPDPEPVLMSKVH | not soluble |
| MNLEGLEMIAVLIVIVLFVKLLEQFGLIEAGLEDSVEDELEMATVRHRPEALELLEAQSKFTKKELQILYRGFKNECPSGVVNEETFKEIYSQFFPQGDSTTYAHFLFNAFDTDHNGAVSFEDFIKGLSILLRGTVQEKLNWAFNLYDINKDGYITKEEMLDIMKAIYDMMGKCTYPVLKEDAPRQHVETFFQKMDKNKDGVVTIDEFIESCQKDENIMRSMQLFENVI | soluble |
| MNLFFEKTGATNVAEFSVSEIAGALKRVVEEKFGYVRVRGEISGYRGAHASGHAYFALKDDKARLEAVIWRGIMEKLKFPPEEGMEVIAVGKLTTYPGSSKYQIVIEALEPTGVGALMTLLENRKKKFAEEGLFDEEKKKPLPYMPKIIGVVTSPTGAVIRDIIHRISDRFPLHILVWPVRVQGETSGREVAAAVKGFNVLPLEGLIPKPDLLIVARGGGSLEDLWGFNDEVVVRAVYESSLPVISAVGHETDWTLIDYVADWRAPTPTAAAEKAVPVKIDLEVYVVSLGARLRTGLARYFDFHQQKLRAIIRALPTADQLFALPRRGFDEISSRLERALCVSCDKKRLYFHTLAIRFTPRLLNTEKAQHSAKEYTARLHRAFVHIVEKQRAQLEIAFRLLKSTSYQNILERGFVLALGQNNKPIKRLAQIPEKEQINLRFFDGEISVITQESFFNRSSKSKRIKSKQDDQGTLF | not soluble |
| MNLGLCMADPDFGVYHHSSREESERLRYMARIMFTEAFGKIGIDQDADMNIIDVGCGLGFLTILCADYFKNSRITAIDTFSMGSLKDNSRERLIENLRLADVLDRVTVVEADITKPFNIEDKFDLAVSNLVFHNTGRQRFSVYRNVWNVLKCGSYFINADGFIRKNVASIFVDPFRADMSKISSMYEPEFAMEPKDQKRNAVWRYILVGLRSKCSDV | not soluble |
| MNLGQTLVGIATWPARAGLAAADTGLNMAGAAVDMAKQALGDAGGASGSTSMANMLGIDDTIARANRLARLLDDDMPLGRAIAPNGPMDRMLRPGGVVDLLTQPGGLLDRLTAEGGAMQRALQPGGLADQLLAEDGLIERVLSEDGLADRLLAEGGLIDKITAKDGPLEQLADVADTLARLTPGMEALEPAIATLQDAVIALTMVVNPLSSIAERIPLPGRRPARRSSSRSVRSQRVVDSE | not soluble |
| MNLQAREGAPLNRYYDPYFACDAVKLLPGEYFASGEDLVIVTVLGSCVSVCLRDPLNGIAGMNHFMLPERGLGGDPASPSARYGSHAMELLINRMLALGASRERLQAKVFGGGSVLRQISAAIGQRNVEFTLDYLATERIPLLASDVLEAFPRKIYFFPRNGRVLVKSLVELKNDTVLQRERDYRRRIDRNADGGPIDLF | not soluble |
| MNLVALAQLILFVLRNLNLKPRKHKPEEIALAIAAYVMGVQITKLNIPPSTLYYYTRKLGVKRRKDVRPRCPSCNSDRVIKNGSSRGKSKYKCKVCGRTFYGTASHRMSREQRERILREYTNRMSLRGISKVEGRPLTTVYSSVKRAALKAYVDLSILQAQLKAFRSKFAVLDESWTYVRVRRGPRRQNLWIWNALIDGVPFFVTGDRDYNTFRLLWLSLPKCEVHYTDDYPIYQVLYHHVVGKKYTHTVESYNSFCRSHLARLARDTKAVNRSRAMIDYSLALLNVMYPQVFTDEKTPLNLAYLSGVQYIRDHLILEHHHHHH | soluble |
| MNMAERAEATKSWSCEPLSGKTLEEIVQNAENAADLVAYIRKPEVDLDFRLKFIAEHEEFFNEQLSDRNSRIRTCHNLSDKGIRGDTVFVFVPGLAGNLEQFEPLLELVDSDQKAFLTLDLPGFGHSSEWSDYPMLKVVELIFVLVCDVLRKWSTAVPNNDNVNPFNGHKIVLVGHSMGCFLACHLYEQHMADTKAVQTLVLLTPPKAHIEQLSKDKHIIQWALYGVFKLPWLFDVYRNKFDQVKGLQSSGIKQYFYQQGDDVKLKYRKFWQFKNNISNKSRTIIGYLLGWETVDWVKFNGVLTQTDMKQKIIIFGAEKDPIAPIENLEFYKQTINKECLRKVIILPDCSHNLCFDRPELVCENFQREVIDNSKL | soluble |
